Drawing on patent US20260028400A1, this text covers EC50 (read off the curve) and Affinity compared to parent antibody (%) for six molecules.

The term EC50 (read off the curve) denotes the concentration that produces a half-maximal response.

The target in experiment [1] is human- or mouse-derived ROR1 antigen (Sino Biological). In words: ELISA on coated ROR1 antigen (human or mouse not said), OD450.
For experiment [2] the target is unchanged. In words: ELISA on coated ROR1 antigen (Sino Biological), conjugate against parent antibody P015042.
For experiment [3] the target is unchanged. In words: ELISA on coated ROR1 antigen (Sino Biological), conjugate against parent antibody P015004. (In general: In an ELISA, binding on a coated surface is turned into a signal by an enzyme label.)
Experiment [4] has the same target. In words: ELISA on coated ROR1 antigen (Sino Biological), conjugate against parent antibody P015044.

B1: P015042 (antibody, V domains shown)
VH: EVQLLESGGGLVQPGGSLRLSCAASGFTFSDYAMSWVRQAPGKGLEWVSVISSDGGSIYYADSVKGRFTISRDNSKNTLYLQMNSLRAEDTAVYYCAKDRSRDMEVDFDYWGQGTLVTVSS
VL: QSVLTQPPSASGTPGQRVTISCSGSSSNIGSNYVTWYQQLPGTAPKLLIYDSSQRPSGVPDRFSGSKSGTSASLAISGLRSEDEADYYCGTWDYSLSGYVFGGGTKLTVL
The molecule B1 gave an EC50 (read off the curve) in experiment [1] of 0.5 nM.

B2: P015042-vc-PAB-MMAE (antibody, IgG1, V domains shown)
VH: EVQLLESGGGLVQPGGSLRLSCAASGFTFSDYAMSWVRQAPGKGLEWVSVISSDGGSIYYADSVKGRFTISRDNSKNTLYLQMNSLRAEDTAVYYCAKDRSRDMEVDFDYWGQGTLVTVSS
VL: QSVLTQPPSASGTPGQRVTISCSGSSSNIGSNYVTWYQQLPGTAPKLLIYDSSQRPSGVPDRFSGSKSGTSASLAISGLRSEDEADYYCGTWDYSLSGYVFGGGTKLTVL
modifications: maleimidocaproyl-valine-citrulline-p-aminobenzyloxycarbonyl monomethyl auristatin E on cysteine sulfhydryls of reduced disulfides; positions not given; average 3.3 drugs per antibody
In experiment [1], B2 gave an EC50 (read off the curve) of 2 nM. Also, in experiment [2], the Affinity compared to parent antibody (%) amounted to 99.3%.

B3: P015004 (antibody, V domains shown)
VH: EVQLLESGGGLVQPGGSLRLSCAASGFTFSDYAMAWVRQAPGKGLEWVSIIYPGDSETIYSPSFEGRFTISRDNSKNTLYLQMNSLRAEDTAVYYCARDTYWEGYFDLWGQGTLVTVSS
VL: EIVLTQSPGTLSLSPGERATLSCRASQGISNYLAWYQQKPGQAPRLLIYDASNLESGIPDRFSGSGSGTDFTLTISRLEPEDFAVYYCQQYANLPYTFGQGTKVEIK
B3 gave an EC50 (read off the curve) in experiment [1] of 0.8 nM.

B4: P015004-vc-PAB-MMAE (antibody, IgG1, V domains shown)
VH: EVQLLESGGGLVQPGGSLRLSCAASGFTFSDYAMAWVRQAPGKGLEWVSIIYPGDSETIYSPSFEGRFTISRDNSKNTLYLQMNSLRAEDTAVYYCARDTYWEGYFDLWGQGTLVTVSS
VL: EIVLTQSPGTLSLSPGERATLSCRASQGISNYLAWYQQKPGQAPRLLIYDASNLESGIPDRFSGSGSGTDFTLTISRLEPEDFAVYYCQQYANLPYTFGQGTKVEIK
modifications: maleimidocaproyl-valine-citrulline-p-aminobenzyloxycarbonyl monomethyl auristatin E on cysteine sulfhydryls of reduced disulfides; positions not given; average 3.0 drugs per antibody
Turning to B4, in experiment [1], the EC50 (read off the curve) was determined as 2 nM. The Affinity compared to parent antibody (%) in experiment [3] came to 80.3%.

B5: P015044 (antibody, V domains shown)
VH: EVQLLESGGGLVQPGGSLRLSCAASGFTFSNYAMHWVRQAPGKGLEWVSIIYPDDDTRYNPSFRGRFTISRDNSKNTLYLQMNSLRAEDTAVYYCARDLLYAGDYWGQGTLVTVSS
VL: QSVLTQPPSASGTPGQRVTISCGGNNIESKAVHWYQQLPGTAPKLLIYANNKRPSGVPDRFSGSKSGTSASLAISGLRSEDEADYYCQSYDSNKVVFGGGTKLTVL
B5 showed an EC50 (read off the curve) in experiment [1] of 0.8 nM.

B6: P015044-vc-PAB-MMAE (antibody, IgG1, V domains shown)
VH: EVQLLESGGGLVQPGGSLRLSCAASGFTFSNYAMHWVRQAPGKGLEWVSIIYPDDDTRYNPSFRGRFTISRDNSKNTLYLQMNSLRAEDTAVYYCARDLLYAGDYWGQGTLVTVSS
VL: QSVLTQPPSASGTPGQRVTISCGGNNIESKAVHWYQQLPGTAPKLLIYANNKRPSGVPDRFSGSKSGTSASLAISGLRSEDEADYYCQSYDSNKVVFGGGTKLTVL
modifications: maleimidocaproyl-valine-citrulline-p-aminobenzyloxycarbonyl monomethyl auristatin E on cysteine sulfhydryls of reduced disulfides; positions not given; average 3.0 drugs per antibody
Regarding B6, the EC50 (read off the curve) in experiment [1] worked out at 2 nM. Also, in experiment [4], the Affinity compared to parent antibody (%) stood at 82.7%.
